Residue numbers refer to the chain shown, from its start. In names and notes the source's numbering stands.
B1: FluA-20 (hybridoma-produced IgG) (antibody, V domains shown)
VH: QVQLQESGPGLVKPSETLSLTCSVSGVSVTSDIYYWTWIRQPPGKGLEWIGYIFYNGDTNYNPSLKSRVTMSIDTSKNEFSLRLTSVTAADTAVYFCARGTEDLGYCSSGSCPNHWGQGTLVTVSS
VL: DIQMTQSPSSLSASIGDRVTITCRPSQNIRSFLNWFQHKPGKAPKLLIYAASNLQSGVPSRFSGSGSGTEFTLTIRSLQPEDFATYYCQQSYNTPPTFGQGTKVEIK
B2: FluA-20 Fab (Fab, V domains shown)
VH: B1 VH
VL: B1 VL
B3: rFluA-20 heavy chain mutant T96A (antibody, V domains shown)
VH: B1 VH with T101A
VL: B1 VL
B4: rFluA-20 heavy chain mutant Y100aA (antibody, V domains shown)
VH: B1 VH with Y106A
VL: B1 VL
B5: rFluA-20 heavy chain mutant Y34A (antibody, V domains shown)
VH: B1 VH with Y34A
VL: B1 VL
B6: rFluA-20 (recombinant FluA-20 IgG) (antibody, V domains shown)
VH: B1 VH
VL: B1 VL
B7: rFluA-20 heavy chain mutant E97A (antibody, V domains shown)
VH: B1 VH with E102A
VL: B1 VL
B8: rFluA-20 heavy chain mutant D98A (antibody, V domains shown)
VH: B1 VH with D103A
VL: B1 VL
B9: rFluA-20 light chain mutant Q55A (antibody, V domains shown)
VH: B1 VH
VL: B1 VL with Q55A

How the values were obtained:
[1] = molecular target: T1, HA of A/California/04/2009 (H1N1) (influenza A virus (H1N1)), P26140; assay: ELISA; details: remark: other sources report otherwise
[2] = molecular target: T1, HA of A/California/04/2009 (H1N1) …; assay: ELISA, recombinant HA; details: remark: other sources report otherwise
[3] = molecular target: T1, HA of A/California/04/2009 (H1N1) …; assay: BLI, Fab on immobilized biotinylated HA; details: remark: other sources report otherwise
[4] = molecular target: T1, HA of A/California/04/2009 (H1N1) …; assay: BLI, 1:1 global fit; Table S2 of the text prints 48 for this strain; details: remark: other sources report otherwise
[5] = molecular target: HA of A/Hong Kong/1073/99 (H9) (influenza A virus (H9))
[6] = molecular target: HA of A/Indonesia/5/2005 (H5N1) (influenza A virus (H5N1))
[7] = molecular target: HA of A/Netherlands/219/2003 (H7N7) (influenza A virus (H7N7))
[8] = molecular target: HA of A/Shanghai/2/2013 (H7N9) (influenza A virus (H7N9))
[9] = molecular target: HA of A/mallard duck/Astrakhan/263/1982 (H14N5) (influenza A virus (H14N5))
[10] = molecular target: HA of A/shearwater/Western Australia/2576/1979 (H15N9) (influenza A virus (H15N9))
[11] = molecular target: T1, HA of A/California/04/2009 (H1N1) …; assay: ELISA, recombinant HA; details: remark: other sources report otherwise; remark: listed apart in the source
[12] = molecular target: HA of A/Hong Kong/1/1968 (H3N2) (influenza A virus (H3N2)), Q91MA7; details: remark: other sources report otherwise

| Binder | EC50 [5] | EC50 [7] | EC50 [8] | EC50 [9] | EC50 [10] | EC50 fold over wild-type rFluA-20 [6] | other results |
| --- | --- | --- | --- | --- | --- | --- | --- |
| B1 | – | – | – | – | – | – | EC50 [1]: 0.008 µg/mL; EC50 [2]: 0.01 µg/mL |
| B2 | – | – | – | – | – | – | Kd [3]: 48 nM; Kd [4]: 46 nM |
| B3 | 0.1 µg/mL | 0.04 µg/mL | 0.37 µg/mL | 0.23 µg/mL | 0.07 µg/mL | – | EC50 [6]: 0.11 µg/mL |
| B4 | – | – | – | – | – | > 100 fold | EC50 fold over wild-type rFluA-20 [5]: > 100 fold; EC50 fold over wild-type rFluA-20 [7]: > 100 fold; EC50 fold over wild-type rFluA-20 [8]: > 100 fold; EC50 fold over wild-type rFluA-20 [9]: > 100 fold; EC50 fold over wild-type rFluA-20 [10]: > 100 fold |
| B5 | 0.21 µg/mL | 0.07 µg/mL | 0.44 µg/mL | 0.54 µg/mL | 0.1 µg/mL | > 100 fold | – |
| B6 | – | – | – | – | – | – | EC50 [11]: 0.031 µg/mL; EC50 [2]: 0.012 µg/mL |
| B7 | 0.36 µg/mL | 0.08 µg/mL | 1 µg/mL | 0.64 µg/mL | 0.12 µg/mL | > 100 fold | – |
| B8 | – | – | – | – | – | – | EC50 fold over wild-type rFluA-20 [7]: > 100 fold |
| B9 | – | – | – | – | – | – | EC50 [12]: 0.08 µg/mL |

Reference: US20210252150A1
